Measured values published in paper PMC6069114, “Fungal Light-Oxygen-Voltage Domains for Optogenetic Control of Gene Expression and Flocculation in Yeast” (mBio, 2018).

Experiments:
[1] = biological target: T1, LOV domain of White Collar 1 (WC-1) bound to the Gal4 DNA binding domain (Neurospora crassa, UniProt Q01371 381-508); assay: two-hybrid; FUN-LOV switch in S. cerevisiae; destabilized firefly luciferase reporter under P_(GAL1) or P_(5XGAL1); luminescence of living cells normalised by OD600; constant white light (100 µmol m^-2 s^-1) or constant blue light (20 µmol m^-2 s^-1), 30°C; fold induction against the average background in constant darkness; details: partners not purified
T1 construct: White Collar 1 (WC-1), blue-light photoreceptor of Neurospora crassa; LOV domain only; also called WC-1 LOV-BD; WC-1 LOV plus GAL4-DBD; source: yeast two-hybrid fusion; S. cerevisiae BY4741 (wt or gal4Δ-gal80Δ), episomal pRS423, ADH1 promoter
T1 sequence (looked up): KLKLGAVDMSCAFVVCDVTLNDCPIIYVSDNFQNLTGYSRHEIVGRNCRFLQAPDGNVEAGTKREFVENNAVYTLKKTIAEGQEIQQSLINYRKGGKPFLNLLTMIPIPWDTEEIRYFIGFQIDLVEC

[2] = biological target: T1, LOV domain of White Collar 1 (WC-1) …; assay: two-hybrid; FUN-LOV switch in S. cerevisiae; luciferase activity in protein extracts of cells grown 8 h in constant light (LL) against constant darkness (DD), normalised to total protein; details: partners not purified

B1: full-length VIVID (VVD) tethered to the Gal4 transactivation domain (natural protein, Neurospora crassa, UniProt Q9C3Y6 1-186, looked up)
chain: MSHTVNSSTMNPWEVEAYQQYHYDPRTAPTANPLFFHTLYAPGGYDIMGYLIQIMNRPNPQVELGPVDTSCALILCDLKQKDTPIVYASEAFLYMTGYSNAEVLGRNCRFLQSPDGMVKPKSTRKYVDSNTINTMRKAIDRNAEVQVEVVNFKKNGQRFVNFLTMIPVRDETGEYRYSMGFQCETE
notes: VIVID (VVD), blue-light photoreceptor of Neurospora crassa; full-length VVD and not just VVD-36; also called VVD-AD; VVD plus GAL4-AD; source: yeast two-hybrid fusion; S. cerevisiae BY4741 (wt or gal4Δ-gal80Δ), episomal pRS425, ADH1 promoter
- fold induction of the luciferase reporter, blue light over darkness (P_(5XGAL1)) [1]: 1320 fold
- fold induction of the luciferase reporter, white light over darkness (P_(5XGAL1)) [1]: 1220 fold
- fold induction of luciferase activity in protein extracts, LL over DD [2]: ~2500 fold
